2 molecules from patent US20190309093A1 (Y BIOLOGICS, published 2019) can be followed below.

One experiment concerns the target T1, hCD3εγ chains.
T1 construct: copies: 1 + 1
T1 epsilon: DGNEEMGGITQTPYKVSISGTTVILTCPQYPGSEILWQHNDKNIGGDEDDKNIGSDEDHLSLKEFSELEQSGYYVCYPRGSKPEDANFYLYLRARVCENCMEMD
T1 gamma: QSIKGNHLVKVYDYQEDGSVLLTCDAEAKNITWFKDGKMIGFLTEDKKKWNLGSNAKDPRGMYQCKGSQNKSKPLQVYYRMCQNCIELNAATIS
In words: ELISA on hCD3εγ chains, fit value of a flat curve, unit taken from the x axis Antibody [nM].

Experiment [1] addresses T2, CD3 on Jurkat luciferase reporter cells (UniProt P07766 23-207).
T2 construct: whole, on cells; also called CD3 positive Jurkat cell line with NFAT luciferase reporter
In words: flow cytometry of Jurkat_NFAT_Luc2P cells, FITC-A; fold over hIgG. On the technique in general: In flow cytometry, cells or beads pass a laser one at a time.

B1: ACE-05 (bispecific antibody)
heavy 1: not shown
heavy 2: not shown
light: QLVLTQPPSVSGAPGQRVTISCTGSSSNIGAGYDVHWYQQLPGAAPKLLIYGDINRPSGVPDRFSGSKSGISASLAITGLQAEDEADYYCQSYDSSLSGGVFGGGTKLTVLRTVAAPSVFIFPPSDEQLKSGTASVVCLLNNFYPREAKVQWKVDNALQSGNSQESVTEQDSKDSTYSLSSTLTLSKADYEKHKVYACEVTHQGLSSPVTKSFNRGEC
notes: The Fab regions are bivalent for PD-L1 and the Fv is monovalent for CD3; also called ALiCE molecule ACE-05
One may read the Kd as the equilibrium constant for the complex coming apart. A higher Kd goes with lower affinity. In the case of B1, the Kd with hCD3εγ chains amounted to 35 pM.

B2: UCHT1 (antibody, V domains shown)
VH: EVQLQQSGPELVKPGPSMKISCKASGYSFTGYTMNWVKQSHGKNLEWMGLINPYKGVSTYNQKFKDKATLTVDKSSSTAYMELLSLTSEDSAVYYCARSGYYGDSDWYFDVWGQGTTLTVFS
VL: DIQMTQTTSSLSASLGDRVTISCRASQDIRNYLNWYQQKPDGTVKLLIYYTSRLHSGVPSKFSGSGSGTDYSLTISNLEQEDIATYFCQQGNTLPWTFAGGTKLEIKR
notes: Bought antibody
In experiment [1], B2 registered a Fold of 35.
